Results on 5 molecules are retold here after patent US20120077731A1 (Ablynx, published 2012).

B5: Human soluble IL-6R (receptor, UniProt P08887 20-358, looked up)
chain: LAPRRCPAQEVARGVLTSLPGDSVTLTCPGVEPEDNATVHWVLRKPAAGSHPSRWAGMGRRLLLRSVQLHDSGNYSCYRAGRPAGTVHLLVDVPPEEPQLSCFRKSPLSNVVCEWGPRSTPSLTTKAVLLVRKFQNSPAEDFQEPCQYSQESQKFSCQLAVPEGDSSFYIVSMCVASSVGSKFSKTQTFQGCGILQPDPPANITVTAVARNPRWLSVTWQDPHSWNSSFYRLRFELRYRAERSKTFTTWMVKDLQHHCVIHDAWSGLRHVVQLRAQEEFGQGEWSEWSPEAMGTPWTESRSPPAENEVSTPMQALTTNKDDDNILFRDSANATSLPVQD
notes: Soluble recombinant form; biotinylated in some assays; also called hIL-6R; human IL-6R

Assay [1] deals with T1, Human membrane IL-6R on cells (human, UniProt P08887 20-468).
T1 sequence (looked up): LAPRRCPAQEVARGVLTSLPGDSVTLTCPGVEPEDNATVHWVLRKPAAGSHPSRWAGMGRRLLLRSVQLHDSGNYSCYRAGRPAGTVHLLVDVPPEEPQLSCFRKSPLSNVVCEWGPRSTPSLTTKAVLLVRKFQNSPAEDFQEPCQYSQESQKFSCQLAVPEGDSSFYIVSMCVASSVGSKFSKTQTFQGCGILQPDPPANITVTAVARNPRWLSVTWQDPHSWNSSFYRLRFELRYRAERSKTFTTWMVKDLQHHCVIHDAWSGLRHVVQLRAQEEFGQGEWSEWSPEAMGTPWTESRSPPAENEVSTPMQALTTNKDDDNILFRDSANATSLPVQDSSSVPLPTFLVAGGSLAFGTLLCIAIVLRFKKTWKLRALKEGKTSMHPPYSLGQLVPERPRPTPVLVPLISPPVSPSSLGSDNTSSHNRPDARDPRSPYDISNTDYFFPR
Put plainly: cell-based or functional assay.

Assay [2] addresses B5. Kind of assay: competition for IL-6R, competitor reference Fab, summary table C-13.
The target in assay [3] is B5. Kind of assay: summary table C-13 of Nanobody characteristics, Kd on IL-6R.
Experimental: (§1) Nanobodies were injected at 5 different concentrations between 1 and 50 nM. Flow rate was 45 μl/min in all experiments. Association and dissociation phase were 3 and 10 min, respectively. The chip was regenerated using Glycine/HCl pH 1.5.
The target of assay [4] is T1, Human membrane IL-6R on cells. Kind of assay: cell-based or functional assay. The source holds these as a separate data set.
Assay [5] concerns the target B5. Put plainly: Biacore off-rate, periplasmic extract. (Surface plasmon resonance follows binding to a sensor surface in real time, without labels.)
The target in assay [6] is B5. Kind of assay: SPR Biacore 3000, IL-6R amine-coupled to CM5; first koff listed; a separate determination, not the one behind the Kd.
The target of assay [7] is B5. Put plainly: SPR Biacore 3000, IL-6R amine-coupled to CM5; paired with the second koff of IL6R06 (r17c3).
Experimental: as §1
Assay [8] deals with B5. Kind of assay: inhibition of the IL-6/IL-6R interaction, summary table C-13.
Experimental: (§2) Finally streptavidin donor beads were added and after 1 hour incubator the plate was read on the Envision microplate reader.
In assay [9] the target is B5. Kind of assay: SPR Biacore 3000, IL-6R amine-coupled to CM5.
Experimental: as §1
For assay [10], the target named is T1, Human membrane IL-6R on cells. Put plainly: cell-based or functional assay. The source holds these as a separate data set.
The target in assay [11] is B5. Kind of assay: Alphascreen, 100 nM Nanobody, 0.4 nM bio-IL-6R; competitor: reference Fab.
Assay [12] deals with B5. Kind of assay: Alphascreen, inhibition of bio-IL-6 binding to IL-6R.
Experimental: as §2
For assay [13], the target named is B5. Put plainly: summary table C-13 of Nanobody characteristics, Kd on IL-6R; summary table C-13.
Assay [14] has as its target T2, Mouse IL-6R (mouse, UniProt P22272 20-364, limits assumed).
T2 construct: also called mouse sIL-6R
T2 sequence (looked up): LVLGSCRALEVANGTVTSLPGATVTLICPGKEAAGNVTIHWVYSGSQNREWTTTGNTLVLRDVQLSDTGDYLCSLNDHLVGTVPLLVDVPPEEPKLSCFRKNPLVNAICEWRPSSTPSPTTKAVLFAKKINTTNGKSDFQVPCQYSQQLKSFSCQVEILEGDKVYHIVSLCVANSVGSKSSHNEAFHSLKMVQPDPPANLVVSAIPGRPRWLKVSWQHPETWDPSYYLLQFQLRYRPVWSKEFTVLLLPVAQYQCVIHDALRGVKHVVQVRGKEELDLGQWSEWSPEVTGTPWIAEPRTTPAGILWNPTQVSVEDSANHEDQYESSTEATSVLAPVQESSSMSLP
Kind of assay: ELISA: plate coated with 1 µg/ml mouse IL-6R, 500 nM Nanobody, anti-myc + anti-mouse-HRP. Background: An ELISA detects its analyte on a solid surface through an enzyme-linked reagent.
Experimental: Detection was performed with anti-myc and anti-mouse-HRP as first and second antibody respectively.

The target of assay [15] is B5. Kind of assay: Alphascreen, inhibition of bio-IL-6 binding to IL-6R. The source holds these as a separate data set. (In general: In Alpha technology, singlet oxygen from a donor bead excites a nearby acceptor bead.)
Experimental: as §2
In assay [16] the target is T2, Mouse IL-6R. Kind of assay: ELISA: plate coated with 1 µg/ml mouse IL-6R; concentration and detection of this control not told.
Assay [17] concerns the target T3, Cyno plasma sIL-6R (cynomolgus monkey, UniProt A0A2K5WN54 60-396).
T3 construct: also called cynomolgus sIL-6R
T3 sequence: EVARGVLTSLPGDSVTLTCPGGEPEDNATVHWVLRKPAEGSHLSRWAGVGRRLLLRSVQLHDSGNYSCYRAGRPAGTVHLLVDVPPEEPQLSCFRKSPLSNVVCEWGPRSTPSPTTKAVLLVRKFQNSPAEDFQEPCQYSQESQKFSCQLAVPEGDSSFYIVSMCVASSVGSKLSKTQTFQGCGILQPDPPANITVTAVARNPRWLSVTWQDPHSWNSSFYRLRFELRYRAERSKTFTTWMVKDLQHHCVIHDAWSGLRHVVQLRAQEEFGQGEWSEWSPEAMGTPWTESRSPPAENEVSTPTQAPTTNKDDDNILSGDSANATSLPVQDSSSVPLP
Kind of assay: plasma potency ELISA, cyno plasma + human IL-6 50 ng/mL; sIL-6R captured on BN-12, bound IL-6 detected; blocked ligand IL-6.

For assay [18], the target named is T4, Human plasma sIL-6R (human, UniProt P08887 20-355, limits assumed).
T4 construct: also called plasma-derived human IL-6R
T4 sequence (looked up): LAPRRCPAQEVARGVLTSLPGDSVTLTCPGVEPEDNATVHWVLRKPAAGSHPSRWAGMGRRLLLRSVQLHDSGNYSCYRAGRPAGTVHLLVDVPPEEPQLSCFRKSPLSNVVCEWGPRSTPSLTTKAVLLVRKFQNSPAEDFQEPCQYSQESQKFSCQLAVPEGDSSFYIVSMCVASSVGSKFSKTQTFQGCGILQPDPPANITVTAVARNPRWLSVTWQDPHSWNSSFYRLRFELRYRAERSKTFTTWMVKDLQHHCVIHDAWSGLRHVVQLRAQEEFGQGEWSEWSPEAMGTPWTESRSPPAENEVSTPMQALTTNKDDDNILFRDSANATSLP
Put plainly: plasma potency ELISA, human plasma, IL-6 at EC95 (885 ng/mL).

The target of assay [19] is T4, Human plasma sIL-6R. Put plainly: plasma potency ELISA, human plasma + human IL-6 50 ng/mL; sIL-6R captured on BN-12, bound IL-6 detected; blocked ligand IL-6.
In assay [20] the target is T4, Human plasma sIL-6R. Put plainly: plasma potency ELISA, human plasma, IL-6 at EC50 (50 ng/mL).
In assay [21] the target is T1, Human membrane IL-6R on cells. Kind of assay: cell-based or functional assay. The source holds these as a separate data set.
Assay [22] has as its target B5. Kind of assay: SPR Biacore 3000, IL-6R amine-coupled to CM5; second koff of IL6R02; the one that fits kon and Kd.
Experimental: as §1
Assay [23] deals with T5, PMP20A11.
T5 construct: also called IL6R20A11; IL6R300; not shown: c-myc and (His)6 tags
Put plainly: competitive binding ELISA, 0.05 nM IL6R20A11 pre-incubated with sIL-6R, free Nanobody captured on sIL-6R.

Assay [24] deals with T5, PMP20A11. Put plainly: competition ELISA: IL6R20A11 (0.4 nM) pre-incubated with a series of recombinant sIL-6R; free IL6R20A11 captured on biotinylated human sIL-6R on neutravidin.

B1: IL6R06 (VHH)
VHH: EVQLVESGGGLVQAGGSLRLSCAASGNIFDDNTMGWTWNRQPPGKQRELVAIIATDGSTNYADSVKGRFTISRDNAKNTVYLQMNSLKPEDTAVYYCNLFSLRLGRDYWGQGTQVTVSS
notes: also called PMP32E2; not shown: C-terminal c-myc and (His)6 tags
Usually Kd stands for a measure of binding affinity in units of concentration. Broadly, the koff is a measure of how fast the partners let go of each other. A lower koff goes with slow dissociation. As usually defined, the kon is a measure of how fast the partners come together. In general, IC50 refers to the point on the concentration scale where inhibition reaches its midpoint. High values mean weaker potency in that assay, low ones greater potency in that assay. Turning to B1, in assay [1], the “IC50 (nM), TF1 cell proliferation” value was found to be 138 nM. For the same molecule, in [2], the “Ref Fab competition (%)” value came out at 36%. In addition, the Kd in [3] and in assay [7] was 7.1 nM each time. For the same molecule, in assay [4], the “IC50 (nM) XG-1” value amounted to 42.1 nM. Also, the koff in [5] amounted to 0.000886 s⁻¹; in [6], 0.000886 s⁻¹; in [9], 0.00757 s⁻¹. The molecule also registered a kon in assay [7] of 1.07e+06 M⁻¹ s⁻¹. In addition, the IC50 in assay [8] and in assay [12] was 1.21 nM each time. Moreover, the “IC50 (nM), XG-1 cell proliferation” value in [10] came to 42.1 nM. Further, in [11], the “Residual reference-Fab binding to IL-6R (%)” value is 36%.

B2: IL6R01 (VHH)
VHH: EVQLVESGGGLVQPGGSLRLSCAASGFPLDYYAIGWFRQAPGKEREGVSCISSSDGSTYYADSVKGRFTISRDNAKNTVYLQMNSLKPEDTAVYYCALVHTTAQATGVPQREYEYEWWGQGTQVTVSS
notes: also called PMP28E11; not shown: C-terminal c-myc and (His)6 tags
As to B2, the “Ref Fab competition (%)” value in assay [2] was 49%. For the same molecule, the IC50 in [8] came out at 0.73 nM. In [13], this molecule gave an equilibrium dissociation constant (Kd) of 0.4 nM. For the same molecule, in [9], the affinity, expressed as Kd, was 0.4 nM; the koff worked out at 0.00011 s⁻¹; the on-rate (kon) was found to be 262000 M⁻¹ s⁻¹. In assay [11], the “Residual reference-Fab binding to IL-6R (%)” value was 49%. This molecule registered an IC50 in assay [12] of 0.726 nM. Also, the binding result in assay [14] was “no binding (tested: 500 nM)”.

B3: Reference Fab (Fab, V domains shown)
VH: QVQLQESGPGLVRPSQTLSLTCTVSGYSITSDHAWSWVRQPPGRGLEWIGYISYSGITTYNPSLKSRVTMLRDTSKNQFSLRLSSVTAADTAVYYCARSLARTTAMDYWGQGSLVTVSS
VL: DIQMTQSPSSLSASVGDRVTITCRASQDISSYLNWYQQKPGKAPKLLIYYTSRLHSGVPSRFSGSGSGTDFTFTISSLQPEDIATYYCQQGNTLPYTFGQGTKVEIKR
notes: Built from RVLa and RVHf of EP 0628639; expressed in E. coli periplasm
For the molecule B3, the “IC50 (nM), TF1 cell proliferation” value in assay [1] came out at 9.2 nM. Also, the results for the IC50 in assay [15], in assay [18] and in [20] were 0.592 nM, 8.47 nM and 0.55 nM, respectively. Moreover, the binding result in assay [16] is reported as “no binding (tested: not given)”. Moreover, the figures for the “IC50 (read off the curve)” value in [17] and in assay [19] were about 0.1 nM and about 0.3 nM, respectively. In [10], the “IC50 (nM), XG-1 cell proliferation” value stood at 6 nM. For the same molecule, the “IC50 (nM), TF-1 proliferation at 100 IU/mL IL-6” value in assay [21] was found to be 6.26 nM.

B4: IL6R02 (VHH)
VHH: EVQLVESGGGLVQAGGSLRLSCAASGRTFSSYDMGWYRQAPGKEREFVAVISRSGSSTYYADSVKGRFTISRDNAKNTVYLQMNSLKPEDTAIYYCKAEVVAGDYDYWGQGTQVTVSS
notes: also called PMP30C11; not shown: C-terminal c-myc and (His)6 tags
Turning to B4, the “IC50 (nM), TF1 cell proliferation” value in assay [1] worked out at 94.7 nM. Moreover, the “Ref Fab competition (%)” value in [2] was determined as 86%. For the same molecule, the Kd in assay [3] and in assay [9] was 5.9 nM each time. Moreover, the koff in [22] came to 0.00495 s⁻¹; in assay [5], 0.00294 s⁻¹; in [9], 0.00294 s⁻¹. In assay [4], the “IC50 (nM) XG-1” value came to 31 nM. Also, the IC50 in assay [8] and in assay [12] was 1.69 nM throughout. The molecule also yielded a kon in assay [9] of 840000 M⁻¹ s⁻¹. Besides, the “IC50 (nM), XG-1 cell proliferation” value in [10] was determined as 31 nM. Moreover, the “Residual reference-Fab binding to IL-6R (%)” value in assay [11] was determined as 86%. For the same molecule, the binding result in assay [14] is “no binding (tested: 500 nM)”.
Take B5: the IC50 in [23] stood at 0.03 nM. Besides, the “IC50 (read off the curve)” value in assay [24] is about 1 ng/mL.
